Measured values taken from the RNAGym collection of RNA variant scans (doi:10.7554/elife.80360).

B1: Hammerhead Ribozyme (parent)
chain: ACCGGAUGUGCUUUCCGGUCUGAUGAGUCCGUGAGGACGAAACAG

Variants of: B1
Assay: self-cleavage, relative activity (ratio to wild type); higher = more cleavage; co-transcriptional

Variant | self-cleavage
UCCGGAUGUGCUUUCCGGUCUGACGAGUCCGUGAGGACGAAACAG [A1U U24C] | 0.726
ACCGGAUGUGCUUUCCGGUCUGAUGAGUCUGUGUGGACGAAACAG [C30U A34U] | 0.93
ACCGGAUGUGCUUUCCGGUCUGAUGAGACCGUGAGGACGAAACCG [U28A A44C] | 0.38
ACCGGGUGUGCUUUCCGGUCUGAUGAGUCCGUGAGGACGAAACAU [A6G G45U] | 0.597
ACCGCAUGUGCUUUCCGGUCUGAUAAGUCCGUGAGGACGAAACAG [G5C G25A] | 0.305
ACCGGAUGUGCUUUCCGGUAUGAUGAGUCCGUGAGGACGAAACAU [C20A G45U] | 0.357
ACCGGAUGUGCUUUCCGGUCUGAUAAGUCCGUGCGGACGAAACAG [G25A A34C] | 0.278
ACAGGAUGUGCUUUCCGGUCUGAUGAGUCCGUGAGGACGCAACAG [C3A A40C] | 0.324
ACCGGAUGUGCUUUCCUGUCUCAUGAGUCCGUGAGGACGAAACAG [G17U G22C] | 0.314
ACCAGAUCUGCUUUCCGGUCUGAUGAGUCCGUGAGGACGAAACAG [G4A G8C] | 0.46
ACCGGAUGUGCUUUCCGGUCUCAUGAGUCCGUGAGCACGAAACAG [G22C G36C] | 0.317
ACCGGCUGUGCUUUCCGGUCAGAUGAGUCCGUGAGGACGAAACAG [A6C U21A] | 0.475
ACCGGAUGUGUUUUCCGGUCUGAUGAGUCCGUGAGGAUGAAACAG [C11U C38U] | 1.02
ACCGGAUGUGCUUUCCGGUCUGAUGAGUCCGUGAGUACGAAUCAG [G36U A42U] | 0.329
ACCGGAUGUGCUUUCCGGUCUGAUGAGUCCGUGAGGGCUAAACAG [A37G G39U] | 0.307
ACCGGAUGUGCUUUUCGGUCUGAUUAGUCCGUGAGGACGAAACAG [C15U G25U] | 0.314
ACCGGAUGGGCUUUCCGGUCUGAUGAGUCCGUGAGGACGAAACCG [U9G A44C] | 0.39
ACCGGGUGUCCUUUCCGGUCUGAUGAGUCCGUGAGGACGAAACAG [A6G G10C] | 0.889
ACCGGAUGUGCUUUCCGGUAUGAUGAGUCCGUGAGGAUGAAACAG [C20A C38U] | 0.385

Variant | self-cleavage
ACCGGAUGUGCUUUCCGUUCUGAUGAGUUCGUGAGGACGAAACAG [G18U C29U] | 0.547
ACCGGAUGUGCUUUCCGGUCUGAUCAGUCUGUGAGGACGAAACAG [G25C C30U] | 0.314
ACGGGAUGUGCUUUGCGGUCUGAUGAGUCCGUGAGGACGAAACAG [C3G C15G] | 0.314
ACCGGAUGUGCUUUCCGAUCUGAUUAGUCCGUGAGGACGAAACAG [G18A G25U] | 0.348
ACCGGAUGUGCUUUCCGGUCUGAUGAUUCCGUGAGGACAAAACAG [G27U G39A] | 0.341
ACCGGAUGUGCUUUCCGGUCCGAUGAGUUCGUGAGGACGAAACAG [U21C C29U] | 0.84
UCCGGAUGUGCUCUCCGGUCUGAUGAGUCCGUGAGGACGAAACAG [A1U U13C] | 0.94
ACCAGAUGUGCUUUCAGGUCUGAUGAGUCCGUGAGGACGAAACAG [G4A C16A] | 0.907
ACCGGUUGUGCUUUCCGGUCUGAUGAGUUCGUGAGGACGAAACAG [A6U C29U] | 0.451
ACCGGAUGUGCUUUCCGGACUUAUGAGUCCGUGAGGACGAAACAG [U19A G22U] | 0.3
ACCGGAUGUGCUUUCAGGUCUGAUGAGUCCGUGAGGACAAAACAG [C16A G39A] | 0.356
ACCGGAUGUGCUUUCCAGUCUGAUGAGUCCGUGACGACGAAACAG [G17A G35C] | 0.548
ACCGGAUGUGCUUUCCGGUCGGAUGAGGCCGUGAGGACGAAACAG [U21G U28G] | 0.564
ACCGGGUGUGCUUUCCGGUCUGAUGAGUCCGUGAGGACGAUACAG [A6G A41U] | 0.273
ACCGGAUGUGCUUUACGGUCUGAUGAGUCCGUGAGGACUAAACAG [C15A G39U] | 0.353
ACCGGAUGUGCUUUCUGGUCUGAUGAGUCCGUGAGGACGAAUCAG [C16U A42U] | 0.273
ACCGGAUGUGCUUUCCGGGCUGAUGAGUCCGCGAGGACGAAACAG [U19G U32C] | 0.449
ACCGGAAGUGCUUUCCGGUCUGAUGAGUCCGUGAGGACGAAACAG [U7A] | 1.28
ACCGGAUGUGCUUUCCGGUCAGAUGAGUCCGUGAGGACGUAACAG [U21A A40U] | 0.338

Variant | self-cleavage
ACCGGAUUUGCUUUCCGGUCUGAUGAGUCCGUCAGGACGAAACAG [G8U G33C] | 0.57
ACCGGAUGUGCCUUCCCGUCUGAUGAGUCCGUGAGGACGAAACAG [U12C G17C] | 0.446
ACCGGAUGUGCUUUCCGGUCUGAUGAGUCCGUGAGGACCAAACCG [G39C A44C] | 0.437
ACCGGAUGUGCUUUCCGGUCUGAAGAGUCCGCGAGGACGAAACAG [U24A U32C] | 0.569
ACCGGAUGUGCUUUCGGGUCUGAUGAGUCCGUGAGGACGAAAUAG [C16G C43U] | 0.285
ACAGGAUGUGCUUUCCGGUCUCAUGAGUCCGUGAGGACGAAACAG [C3A G22C] | 0.285
ACCGGAUGUGCUUUCGGGUCUGAUGAGUCCGUAAGGACGAAACAG [C16G G33A] | 0.994
ACCGGAUGUGCUUUACGGUCUGAUGAGUCCGUGAGGACGAAACGG [C15A A44G] | 0.897
ACCGGAUGUGCUUUCCGGUCUGACGAGCCCGUGAGGACGAAACAG [U24C U28C] | 1.06
ACCGGAUGUGCUUUCCGGUCUGAUGAGUCCGUGUGGUCGAAACAG [A34U A37U] | 0.412
ACCGGAUGUGCUUUCCGCUCUGAUUAGUCCGUGAGGACGAAACAG [G18C G25U] | 0.284
ACCGGAUGUGCUUUCGGGUCGGAUGAGUCCGUGAGGACGAAACAG [C16G U21G] | 0.278
ACCGGAUGUGCUUUGCGGUCUGAUGAGUCCGUGUGGACGAAACAG [C15G A34U] | 0.904
ACUGGAUGUGCUUUCCGGUCUGAUGAGUCCGUGAGCACGAAACAG [C3U G36C] | 0.424
ACCCGAUGUGCUUUCCGGUCUGAUGAGUCUGUGAGGACGAAACAG [G4C C30U] | 0.703
ACCAGAUGUGGUUUCCGGUCUGAUGAGUCCGUGAGGACGAAACAG [G4A C11G] | 0.539
UCCGGAUGUGCUUUCCGGUCUGAUGAGUCCGUGAGGAAGAAACAG [A1U C38A] | 0.528
ACCGGAUGUGCUUUCCGGUCUGCUGAGUCCGUGAGGACGAACCAG [A23C A42C] | 0.31
ACCGCAUGUGCUUUCCGGUCUGAUGAGUCCGAGAGGACGAAACAG [G5C U32A] | 0.549
